This note sets out measurements from patent US20060029603A1 (GlaxoSmithKline, published 2006).

Broadly, the EC50 (read off the curve) is the concentration at which the effect is half-maximal. Higher therefore signals a need for much substance. What is called koff is the rate constant with which the complex falls apart. A word on the Kd: it is the equilibrium constant for the complex coming apart. Low values mean a tighter complex, high ones a looser complex. The kon is the rate constant with which the complex forms. Higher therefore signals fast association.

B1: H17L13 (antibody, human IgG1, kappa)
heavy: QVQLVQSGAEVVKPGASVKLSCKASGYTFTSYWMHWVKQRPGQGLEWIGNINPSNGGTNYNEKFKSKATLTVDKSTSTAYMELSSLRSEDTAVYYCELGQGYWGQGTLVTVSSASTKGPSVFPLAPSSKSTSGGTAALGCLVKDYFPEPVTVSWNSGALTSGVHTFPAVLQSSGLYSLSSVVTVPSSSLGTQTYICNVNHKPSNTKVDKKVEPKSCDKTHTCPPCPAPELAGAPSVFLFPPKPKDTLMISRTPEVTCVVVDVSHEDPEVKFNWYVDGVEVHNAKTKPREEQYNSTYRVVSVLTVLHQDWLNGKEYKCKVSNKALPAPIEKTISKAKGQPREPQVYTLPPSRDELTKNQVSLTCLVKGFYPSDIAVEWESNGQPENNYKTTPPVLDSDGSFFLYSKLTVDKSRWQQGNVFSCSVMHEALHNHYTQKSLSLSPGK
light: DIVMTQSPLSLPVTLGQPASISCRSSKSLLYKDGKTYLNWFQQRPGQSPQLLIYLMSTRASGVPDRFSGGGSGTDFTLKISRVEAEDVGVYYCQQLVEYPLTFGQGTKLEIKRTVAAPSVFIFPPSDEQLKSGTASVVCLLNNFYPREAKVQWKVDNALQSGNSQESVTEQDSKDSTYSLSSTLTLSKADYEKHKVYACEVTHQGLSSPVTKSFNRGEC
notes: Tested as CHO-K1 supernatant
B2: H16L13 (antibody, human IgG1, kappa)
heavy: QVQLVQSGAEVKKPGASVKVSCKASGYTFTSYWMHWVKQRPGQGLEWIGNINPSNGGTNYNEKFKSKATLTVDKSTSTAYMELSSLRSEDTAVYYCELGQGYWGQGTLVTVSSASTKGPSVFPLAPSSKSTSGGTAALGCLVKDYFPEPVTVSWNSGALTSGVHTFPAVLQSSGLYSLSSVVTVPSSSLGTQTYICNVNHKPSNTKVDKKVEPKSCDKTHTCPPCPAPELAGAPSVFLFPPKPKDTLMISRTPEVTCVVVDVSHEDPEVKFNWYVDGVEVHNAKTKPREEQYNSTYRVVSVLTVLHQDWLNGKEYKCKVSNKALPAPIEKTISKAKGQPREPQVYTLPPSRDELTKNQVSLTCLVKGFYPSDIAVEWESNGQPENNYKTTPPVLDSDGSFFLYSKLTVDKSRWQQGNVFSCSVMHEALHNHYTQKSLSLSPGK
light: B1 light
notes: Tested as CHO-K1 supernatant
B3: H16L18 (antibody, human IgG1, kappa)
heavy: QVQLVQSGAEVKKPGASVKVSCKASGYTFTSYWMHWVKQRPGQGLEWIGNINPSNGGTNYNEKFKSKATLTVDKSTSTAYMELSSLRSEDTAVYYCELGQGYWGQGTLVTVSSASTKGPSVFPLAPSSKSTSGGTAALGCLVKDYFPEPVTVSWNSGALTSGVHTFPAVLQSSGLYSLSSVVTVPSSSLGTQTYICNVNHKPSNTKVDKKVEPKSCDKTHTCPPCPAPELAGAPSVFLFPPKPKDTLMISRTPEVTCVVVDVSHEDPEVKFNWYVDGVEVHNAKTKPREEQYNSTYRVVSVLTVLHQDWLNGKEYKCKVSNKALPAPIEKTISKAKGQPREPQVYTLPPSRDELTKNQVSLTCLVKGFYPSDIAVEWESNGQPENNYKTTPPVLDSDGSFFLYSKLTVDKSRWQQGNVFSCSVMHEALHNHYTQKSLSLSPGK
light: B1 light with S7D, L11N, A19V, Q42L, P64S, G70S
notes: Humanised 2A10; Human gamma1 mutated constant region and human kappa; also called H16L18 FL
B4: H16L16 (antibody, human IgG1, kappa)
heavy: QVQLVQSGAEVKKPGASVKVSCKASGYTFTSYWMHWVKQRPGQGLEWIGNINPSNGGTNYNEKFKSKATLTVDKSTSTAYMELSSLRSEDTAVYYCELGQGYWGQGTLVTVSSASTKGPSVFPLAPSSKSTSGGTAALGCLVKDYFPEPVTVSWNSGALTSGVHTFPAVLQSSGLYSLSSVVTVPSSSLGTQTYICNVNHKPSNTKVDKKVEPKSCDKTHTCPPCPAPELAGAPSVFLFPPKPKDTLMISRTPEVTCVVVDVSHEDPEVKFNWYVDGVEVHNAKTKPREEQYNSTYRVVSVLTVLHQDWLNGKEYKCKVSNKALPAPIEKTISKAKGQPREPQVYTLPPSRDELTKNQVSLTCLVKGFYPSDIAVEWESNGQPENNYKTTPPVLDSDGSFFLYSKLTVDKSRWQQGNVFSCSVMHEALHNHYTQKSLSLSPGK
light: B1 light with L11N, A19V, Q42L
notes: Humanised 2A10; Human gamma1 mutated constant region and human kappa; also called H16L16 FL
B5: H14L16 (antibody, human IgG1, kappa, V domains shown)
VH: QVQLVQSGAEVVKPGASVKLSCKASGYTFTSYWMHWVKQAPGQGLEWIGNINPSNGGTNYNEKFKSRATLTRDTSTSTAYMELSSLRSEDTAVYYCELGQGYWGQGTLVTVSS
VL: DIVMTQSPLSNPVTLGQPVSISCRSSKSLLYKDGKTYLNWFLQRPGQSPQLLIYLMSTRASGVPDRFSGGGSGTDFTLKISRVEAEDVGVYYCQQLVEYPLTFGQGTKLEIKR
B6: H15L18 (antibody, human IgG1, kappa, V domains shown)
VH: B5 VH with A40R, R67K, R72V, T76S, T91S
VL: B5 VL with S7D, P64S, G70S
notes: Tested as CHO-K1 supernatant
B7: H6L18 (antibody, human IgG1, kappa, V domains shown)
VH: B5 VH with V12K, L20V, K38R, L70M
VL: B5 VL with S7D, P64S, G70S
notes: Tested as CHO-K1 supernatant
B8: H15L13 (antibody, human IgG1, kappa, V domains shown)
VH: B5 VH with A40R, R67K, R72V, T76S, T91S
VL: B5 VL with N11L, V19A, L42Q
notes: Tested as CHO-K1 supernatant
B9: H18L18 (antibody, human IgG1, kappa, V domains shown)
VH: B5 VH with A40R, R67K, R72V, T74K, T76S, T91S
VL: B5 VL with S7D, P64S, G70S
notes: Tested as CHO-K1 supernatant
B10: H17L18 (antibody)
heavy: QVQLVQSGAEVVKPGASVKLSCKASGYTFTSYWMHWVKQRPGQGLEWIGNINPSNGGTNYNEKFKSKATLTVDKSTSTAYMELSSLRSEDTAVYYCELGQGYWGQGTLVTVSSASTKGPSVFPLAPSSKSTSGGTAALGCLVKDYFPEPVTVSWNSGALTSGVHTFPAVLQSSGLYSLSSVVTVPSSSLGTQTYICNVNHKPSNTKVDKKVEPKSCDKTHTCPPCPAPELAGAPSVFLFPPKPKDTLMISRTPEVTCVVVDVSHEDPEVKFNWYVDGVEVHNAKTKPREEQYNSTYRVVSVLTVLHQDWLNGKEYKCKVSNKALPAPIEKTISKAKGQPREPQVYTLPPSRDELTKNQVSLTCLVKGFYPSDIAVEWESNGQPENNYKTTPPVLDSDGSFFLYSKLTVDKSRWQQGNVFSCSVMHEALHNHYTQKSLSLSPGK
light: B1 light with S7D, L11N, A19V, Q42L, P64S, G70S
notes: copies: 2 + 2
B11: H16L17 (antibody, V domains shown)
VH: B5 VH with V12K, L20V, A40R, R67K, R72V, T74K
VL: B5 VL with S7D, N11L, V19A, L42Q, P64S, G70S
notes: copies: 2 + 2
B12: H6L13 (antibody, human IgG1, kappa, V domains shown)
VH: B5 VH with V12K, L20V, K38R, L70M
VL: B5 VL with N11L, V19A, L42Q
notes: Humanised 2A10; Human gamma1 mutated constant region and human kappa; also called H6L13 FL
B13: H1L11 (antibody, human IgG1, kappa, V domains shown)
VH: B5 VH with V12K, L20V, K38R, I48M, A68V, L70M, A79V
VL: B5 VL with M4I, N11L, V19A, L42Q
notes: Earlier humanised 2A10

Numbering of substitutions follows the chain as printed.

The first assay deals with T1, GST-human NOGO-A56 (human, UniProt P08515 1-218 = GST).
T1 construct: GST-tagged fusion expressed in E. coli BL21 and purified on glutathione-sepharose; coated on ELISA plates or amine-coupled to a CM5 chip; also called hNOGO; recombinant human NOGO
T1 sequence (P08515 1-218, tags or fused parts left off): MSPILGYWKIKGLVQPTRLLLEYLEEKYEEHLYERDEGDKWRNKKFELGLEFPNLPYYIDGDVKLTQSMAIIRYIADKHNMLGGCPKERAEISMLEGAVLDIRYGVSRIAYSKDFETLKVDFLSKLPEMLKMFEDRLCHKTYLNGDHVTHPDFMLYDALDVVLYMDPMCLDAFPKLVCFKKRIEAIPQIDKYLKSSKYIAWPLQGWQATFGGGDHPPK
Kind of assay: ELISA, coated GST-human NOGO-A56, transfection supernatant, anti-human kappa-HRP, OD 490 nm. The protocol: (§1) GST-human NOGO-A56 (SEQ ID: 76) at 1 μg/ml in PBS was coated onto Nunc Immunosorp plates (100 μl per well) at 4° C. overnight. Wells were rinsed once with TBS+0.05% Tween (TBST) then incubated with 2% BSA in TBST to block non-specific binding sites at room temperature for 1 hour. Antibodies were diluted in TBST+2% BSA to 10 μg/ml and 1/2 dilutions made from this. Antibodies were added to wells in duplicate and incubated at room temperature for 1 hour. Wells were washed three times with TBST then incubated with anti-human kappa peroxidase conjugate (1:2000) for 1 hour. The wells were washed three times with TBST and then incubated with 100 μl OPD peroxidase substrate (Sigma) per well for 10 minutes. The colour reaction was stopped by the addition of 25 μl concentrated H₂SO₄. Optical density at 490 nm was measured using a plate reader. Background values read from wells with no antibody were subtracted.
On to B1, for which the “EC50 (read off the curve)” value is ~0.06 µg/mL.

Take B2: the “EC50 (read off the curve)” value is ~0.08 µg/mL.

As to B3, the “EC50 (read off the curve)” value is ~0.04 µg/mL.

B4: the “EC50 (read off the curve)” value is ~0.06 µg/mL.

A further assay has as its target T1, GST-human NOGO-A56. The assay is described as above. This is another data set of the same source. The protocol: as §1
B5: the “EC50 (read off the curve)” value is ~0.08 µg/mL.

B3: the “EC50 (read off the curve)” value was ~0.03 µg/mL.

For the molecule B6, the “EC50 (read off the curve)” value is ~0.04 µg/mL.

For the next assay, the target named is T1, GST-human NOGO-A56. Described as above. This is another data set of the same source. The protocol: as §1
B5: the “EC50 (read off the curve)” value was ~0.09 µg/mL.

For the molecule B4, the “EC50 (read off the curve)” value was ~0.04 µg/mL.

In another assay the target is T1, GST-human NOGO-A56. Kind of assay: SPR (Biacore) off-rate ranking, CHO-K1 transient supernatant over GST-human NOGO-A56 chip; single experiment. The protocol:
(§2) hNOGO (GST-human NOGO-A56) was immobilised to a CM5 chip by primary amine coupling using the Biacore Wizard program designed for targeted immobilisation levels. The CM5 sensor surface was activated by passing a solution of 50 mM N-hydroxy-succinimide (NHS) and 200 mM N-ethyl-N′-dimethylaminopropyl […] (EDC). Then hNOGO in sodium acetate buffer, pH5.0 or pH 4.5, was passed over the chip and immobilised. After immobilisation was complete any still activated esters were blocked by an injection of 1M ethanolamine hydrochloride, pH8.5.
(§3) The hNOGO chip was prepared as for kinetic analysis. Cell supernatants where taken directly from transient transfections of CHO-K1 cells. These were passed directly over the sensor surface and the interaction measured. A mock transfected cell supernatant was used for double referencing to remove any artefacts due to the tissue culture media. All runs were referenced against a blanked sensor surface (one that had been activated and blocked as described earlier but had no addition of ligand). Analysis of binding was carried out using the BIAevaluation kinetic analysis software version 4.1.
For orientation: SPR reads the build-up and loss of mass on a sensor chip optically.
B7 showed a koff of 0.0106 s⁻¹.

Regarding B1, the koff came to 0.00931 s⁻¹.

B8 registered a koff of 0.00965 s⁻¹.

B5 registered a koff of 0.0089 s⁻¹.

B2 registered a koff of 0.00907 s⁻¹.

B6 had a koff of 0.00594 s⁻¹. Compared with the last molecule, the koff is about 1.5-fold lower.

For the molecule B9, the koff stood at 0.0058 s⁻¹. This koff and that of the molecule before are within 1.5-fold of each other.

Another assay addresses T1, GST-human NOGO-A56. Kind of assay: ELISA, coated GST-human NOGO-A56, transfection supernatant, anti-human kappa-HRP, OD 490 nm. The source holds these as a separate data set. Here is the method:
as §1
On the technique in general: ELISA stands for enzyme-linked immunosorbent assay.
In the case of B7, the “EC50 (read off the curve)” value is ~0.4 µg/mL.

Another assay has as its target T1, GST-human NOGO-A56. Described as above. This is another data set of the same source. The protocol:
as §1
Take B8: the “EC50 (read off the curve)” value was ~0.05 µg/mL.

Regarding B3, the “EC50 (read off the curve)” value was ~0.06 µg/mL.

Regarding B4, the “EC50 (read off the curve)” value is ~0.06 µg/mL.

For the next assay, the target named is T1, GST-human NOGO-A56. Described as above. This is another data set of the same source. Here is the method:
as §1
Consider B10, for which the “EC50 (read off the curve)” value is ~0.1 µg/mL.

In the case of B11, the “EC50 (read off the curve)” value is ~0.1 µg/mL.

Take B12: the “EC50 (read off the curve)” value is ~0.2 µg/mL.

With B9, the “EC50 (read off the curve)” value was ~0.1 µg/mL.

Another assay has as its target T1, GST-human NOGO-A56. Kind of assay: SPR (Biacore 3000), GST-human NOGO-A56 amine-coupled to CM5, antibody as analyte; mean (SD) of four experiments. The protocol: (§4) The binding kinetics of the anti-NOGO monoclonal antibody (mAb) to recombinantly expressed human NOGO-A (GST-human NOGO-A56) was analysed using the Biacore3000 biosensor. The hNOGO-A chip was prepared as follows:
as §2
(§5) The anti-NOGO mAbs were diluted down in HBS-EP (10 mM HEPES, pH 7.4, 150 mM NaCl, 3 mM EDTA, and 0.005% P-20 surfactant) and binding studies were carried out at range of defined antibody concentrations. All runs were referenced against a blanked sensor surface (one that had been activated and blocked as described earlier but had no addition of ligand). Analysis of binding was carried out using the BIAevaluation kinetic analysis software version 4.1. Biacore analysis of other antibodies of the invention essentially followed the same protocol as described herein.
Take B3: binding was put at a Kd of 1.33 nM, the dissociation rate constant (koff) came to 0.00552 s⁻¹ and the kon was determined as 4.18e+06 M⁻¹ s⁻¹.

Molecule B12 had a Kd of 7.68 nM, a koff of 0.0137 s⁻¹ and a kon of 1.82e+06 M⁻¹ s⁻¹.

Take B13: the Kd was found to be 18.6 nM, the koff is 0.0314 s⁻¹ and the kon came out at 1.73e+06 M⁻¹ s⁻¹.

For the molecule B4, binding was put at a Kd of 1.26 nM, the koff turned out to be 0.00554 s⁻¹ and the kon is 4.37e+06 M⁻¹ s⁻¹.

The target in the next assay is T1, GST-human NOGO-A56. Kind of assay: SPR (Biacore 3000), GST-human NOGO-A56 on CM5, antibody as analyte; single experiment. The protocol: as §4, §2, §5
In turn, B5 yielded a Kd of 3.6 nM, a koff of 0.00739 s⁻¹ and a kon of 2.05e+06 M⁻¹ s⁻¹.

As for B12, the Kd came out at 7.3 nM, the koff was 0.013 s⁻¹ and the kon came to 1.77e+06 M⁻¹ s⁻¹.

On to B13, for which the Kd came out at 21.3 nM, the koff was determined as 0.0284 s⁻¹ and the kon was found to be 1.33e+06 M⁻¹ s⁻¹.

On to B4, for which the Kd was 1 nM, the koff stood at 0.00569 s⁻¹ and the kon worked out at 5.47e+06 M⁻¹ s⁻¹.

The target of a further assay is T1, GST-human NOGO-A56. Kind of assay: SPR (Biacore) off-rate ranking, CHO-K1 transient supernatant over GST-human NOGO-A56 chip; mean (SD) of three runs. The protocol: as §2, §3
Consider B3, for which the koff worked out at 0.00609 s⁻¹.

The molecule B12 had a koff of 0.0173 s⁻¹.

As to B13, the koff was found to be 0.0403 s⁻¹. This koff lies about 2.3-fold higher than the previous one.

With B4, the koff worked out at 0.00664 s⁻¹.

Another assay deals with T1, GST-human NOGO-A56. Kind of assay: SPR (Biacore 3000), GST-human NOGO-A56 on CM5, antibody as analyte; single experiment. The source holds these as a separate data set. Here is the method: as §2, §5
Molecule B12 had a Kd of 7.9 nM, a koff of 0.0233 s⁻¹ and a kon of 2.95e+06 M⁻¹ s⁻¹.

The target of another assay is T1, GST-human NOGO-A56. Kind of assay: ELISA, coated GST-human NOGO-A56, transfection supernatant, anti-human kappa-HRP, OD 490 nm. The source holds these as a separate data set. The protocol:
as §1
For B7, the “EC50 (read off the curve)” value is ~0.5 µg/mL.

On to B3, for which the “EC50 (read off the curve)” value was ~0.4 µg/mL.
